The source of these data is article PMC9312987, “NMR Reveals Specific Tracts within the Intrinsically Disordered Regions of the SARS-CoV-2 Nucleocapsid Protein Involved in RNA Encountering”.

This data set concerns the target N protein NTR (IDR1-NTD-IDR2) (SARS-CoV-2, UniProt P0DTC9 1-248). The data set can be described thus: EMSA. The conditions noted are these: protein: recombinant; tags: none stated; label: 5'-32P for EMSA; unlabeled for NMR; hairpin (stem loop). In general terms: Mobility shift assays separate free from complexed probe on a gel.

B1: 5_SL4 (SL4 RNA) (structured_RNA)
RNA: GGGUGUGGCUGUCACUCGGCUGCAUGCUUAGUGCACUCACGCCC
For the molecule B1, the binding result was “binds”.
